# Measurements: the nanobody polyreactivity screen of Harvey et al. (2022)
# Test: yeast display, Sf9 membrane polyspecificity reagent, FACS + sequencing; frameworks hold sequencing errors
# Summary of the method: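 Nanobodies came from a synthetic yeast display library in Saccharomyces cerevisiae BJ5465, induced with galactose for 36–48 hours and stained for 1 hour at 4 °C with 10% biotinylated, detergent-solubilized Sf9 membrane reagent. Cells were enriched on streptavidin microbeads and then FACS-sorted, with low and high (top ~1%) gates set on anti-HA fluorescence for expression and streptavidin fluorescence for reagent binding. Each polyreactivity label reflects the gate a clone came from. Genes were amplified by colony PCR, sequenced by MiSeq 2 × 250 and filtered by CDR length.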
row,Sequence,polyreactivity (PSR sort gate)
1,QVQLVESGGGLVQAGGSLRLSCAASGFTFAVYAMGWYRQAPGKEREFVADITYDGGSTYYADSVKGRFTISRDNAKNTVYLQMNSLKPEDTAVYYGAAERLGAFQTPSNVSKYYYWGQGSQVTVSS,low polyreactivity
2,QVQLVESGGGLVQAGGSLRLSCAASGFTFAVYAMGWYRQAPGKERELGAAISRSGTRTYYADSVKGRFTFSRDNAKNTVYLQMNSLKPEDTAVYYCATVVILIYDYWGQGTQVSVSS,low polyreactivity
3,QVQLVESGGGLVQAGGSLRLSCAASGFTFAVYVMGWYRQAPGKERELVATISFSVGSTYYADSVKGRFTISGDNAKNTVYLQMNRLKPEDTAVYYCNADPPPEYYPDKDNYWGQGTQVTVSS,low polyreactivity
4,QVQLVESGGGLVQAGGSLRLSCAASGFTFAWYAMGWYRPAPGKERELVAAISGSGGRTYYADSVKGRFTISRDNAKNTVYLQMNSLKPEDTAVYYFNTDRYWGKGDYWGQGTLVTVSS,high polyreactivity
5,QVQLVESGGGLVQAGGSLRLSCAASGFTFAYNAMGWYRPAPGKERELVAAITTRTGTTYYADSVKGRFTISRDNAKNTVYLQMNSLKPEDTAVYYCAKRGYYRYYYWGQGTLVTVSS,high polyreactivity
6,QVQLVESGGGLVQAGGSLRLSCAASGFTFAYNAMGWYRQAPGKEREFVAAITSSGGSTYYADSVKGRFTISRDYAKNTVYLQMNSLKPEHTAVYYCNAYYTFPRYQYGYWGQGTQVTVSS,high polyreactivity
7,QVQLVESGGGLVQAGGSLRLSCAASGFTFAYYAMGWYRQAPGKERELVAAISERGGSTYYADSVKGRFTISRDNAKNTVYLQMNSLKPEDTAVYYCARTFWDYPWYQSSYYSWGQGTQVTVSS,low polyreactivity
8,QVQLVESGGGLVQAGGSLRLSCAASGFTFAYYAMGWYRQAPGKERELVAAISSGGGSTYYADSVKGRFTISRDNAKNTVYLQMNSLKPEDTAVYYCATTIQISYDSIWYDYWGQGTQVTVSS,high polyreactivity
9,QVQLVESGGGLVQAGGSLRLSCAASGFTFDANAMGWYRQAPGKERELVAAITRFGSTFYADSVKGRFTISRDNAKNTVYLQMNSLKPEDTAVYYCNAARDHVSGYDYWGQGTQVTVSS,low polyreactivity
10,QVQLVESGGGLVQAGGSLRLSCAASGFTFDAYDMGWYRQAPGKERELVAAISWRGIDTTYADSVKGRFTISRDNAKNTVYLQMNSLKPEDTAVYYCAEFVSDATVGPSKGLDYWGQGTQVTVSS,low polyreactivity
11,QVQLVESGGGLVQAGGSLRLSCAASGFTFDAYTMGWYRQAPGKERELVAAINWSGDTTYYADSVKGRFTISRDNAKNTVYFQMNSLKPEDTAVYYCAAVWWIYGVWFDYWGQGTQVTVSS,high polyreactivity
12,QVQLVESGGGLVQAGGSLRLSCAASGFTFDFYAMGWYRPAPGKERELVAAISRSGGRTYYADSVKGRFTISRDNAKNTVYLQMNSLKPEDTAVYYCNTGFFYYNFRYYYWGQGTQVTVSS,low polyreactivity
13,QVQLVESGGGLVQAGGSLRLSCAASGFTFDGYAMGWDRQAPGNERELVAAFSDSGDSTYYADSVKGRFTISRDNAKNTVYLQMNSLTPEDTAVYYCAAGLGYYWSDYFAYDSCGQGTQVTVSS,low polyreactivity
14,QVQLVESGGGLVQAGGSLRLSCAASGFTFDHYAMGWYRQAPGKERELVARITGTGDSTYYADSVKGRFTISRDNAKNTVYLQRNSLKPEDTAVDYCNADRRYDFYDGYGYWGQGTQVTVSS,low polyreactivity
15,QVQLVESGGGLVQAGGSLRLSCAASGFTFDKYAMGWYRQAPGKERELVAAISNSGGRTYYADSVKGRFTISRDNAKNTVYLQMNSLKPEDTAVYYCTIFKDYDYWGQGTQVTVSS,high polyreactivity
16,QVQLVESGGGLVQAGGSLRLSCAASGFTFDNYAMGWYRQAPGKERELVAAINWSGDRTYYADSVKGRFTISRDNAKNTVYLQMNSQIPEDTAVYYCNAVTSWAGSLDYWGQGTQVTVSS,high polyreactivity

row,Sequence,polyreactivity (PSR sort gate)
1,QVQLVESGGGLVQAGGSLRLSCAASGFTFDPDAMGWYRQAPGKERELVASITWSGDNTYYADSVKGRFSISRDNAKTTVYLQMNSLKPEDTAVYYCNVEWAWWSTRYDSWGQGTQVTVSS,high polyreactivity
2,QVQLVESGGGLVQAGGSLRLSCAASGFTFDSNVMGWYRQAPGKEREVVAAITGDDTTYYADSVKGRFTISRDNAKNTVYLQMNSLKPEDTAVYYCAADETESLEYTAYDMYYWGQGTQVTVSS,low polyreactivity
3,QVQLVESGGGLVQAGGSLRLSCAASGFTFDSYAMGWYRQAPGKERELVASISSSGSTNYADSVKGRFTISRDNAKNTVYLQMNSLKPEDTAVYYCAAESRYPFIYEYWGQGTQVTVSS,low polyreactivity
4,QVQLVESGGGLVQAGGSLRLSCAASGFTFDTYDMGWYRQAPGKERELVAAIDWSGVSTYYADSVKGRFTISRDNAKNTVYLQMNSLKPEDTAVYYCAADLWQYDIASWDYTYDYWGQGTQVTVSS,low polyreactivity
5,QVQLVESGGGLVQAGGSLRLSCAASGFTFDWNAMGWYRQAPGKERELVAAISNSDGSTYYADSVKGRFTISRDNAKNTVYLQMNSLKPEDTAVYYCNKLYRGGWYAYWGQGTQVTVSS,low polyreactivity
6,QVQLVESGGGLVQAGGSLRLSCAASGFTFDYNAMGWYRQAPGKERELVAVISSSGSRTYYADSVKGRFTISRDIAKITVYLQINSLNPEDTAVYYCAAARIGTRDYWGQGTQVSVSS,high polyreactivity
7,QVQLVESGGGLVQAGGSLRLSCAASGFTFDYNTMGWYRQAPGKEIELVAGISRGGGSTYYADSVKGRFTISRDNAKNTVYLQMNSLKPEVTAVYYCNTVLKRQRKNEYWGQGTQVTVSS,high polyreactivity
8,QVQLVESGGGLVQAGGSLRLSCAASGFTFDYYAMGWYRQAPGKERELVAAISWSGSTTYYADSVKGRFTISRDNAKNTVYLQMNSLKPEDTAVYYCATNLDRPFDYWGQGTQVTVSS,high polyreactivity
9,QVQLVESGGGLVQAGGSLRLSCAASGFTFDYYAMGWYRQAPGKERELVAAITSDGSTYYADSVKGRFTISRDNAKNTVYLQMNSLKPEDTAVYYCAADGISLYATAYDYWGQGTQVTVSS,low polyreactivity
10,QVQLVESGGGLVQAGGSLRLSCAASGFTFEEYAMGWYRQAPGKERELVAAIDYTVGSTYYADSVKGRFTISRDNAKNTVYLQMNSLKPEDTAVYYCNVDLSYSFNSAYGYWGQGTQVTVSS,low polyreactivity
11,QVQLVESGGGLVQAGGSLRLSCAASGFTFEKNAMGWDRQAPGKERELGAAISRGGSTYADSVKGRFTISRDNAKNTVHLQINSLKPEDTAVYYCAADTVYIFSSAINGEFGDWGQGTQVTVSS,low polyreactivity
12,QVQLVESGGGLVQAGGSLRLSCAASGFTFEKYSMGWYRQAPGKERELVAAITQSAGSTYADSVKGRFTISRDNAKNTVYLQMISLKPEDTAVYYFAARYRYPYYARYGYWGQGTQVTVSS,high polyreactivity
13,QVQLVESGGGLVQAGGSLRLSCAASGFTFEWYTMGWYRQAPGKERELVADISGDGTTYYADSVKGRFTISRDNAKNTLYLQMNSLKPEDTAVYYCAARTVGRKAGFDYWGQGTQVTVSS,high polyreactivity
14,QVQLVESGGGLVQAGGSLRLSCAASGFTFEYNAMGWYRQAPGKERELVAAISRSGGSTYYADSVKGRFTISRDNAKNTVYLQMNSLIPEDTAVYYCAAEPYPLPSYGYWGQGTQVTVSS,high polyreactivity
15,QVQLVESGGGLVQAGGSLRLSCAASGFTFEYYAMGWYRQAPGKEREFVAAISARGDSTYYADSVKGRFTISRDNAKNTVYLQMNSLKPEDSAVYYCAKKTSPRRYYYWGQGTQVTVSS,high polyreactivity
16,QVQLVESGGGLVQAGGSLRLSCAASGFTFFDNAMGWYRQAPGKERELVAVISSGGRTYYADSVKGRFTISRDNAKNTVYLQMNSLTPEDTAVYYCNAARAQRVKYDYWGQGTQVTVSS,high polyreactivity
